Experimental data: patent publication US20140154252A1 (EMERGENT PRODUCT DEVELOPMENT SEATTLE, published 2014)

T1: CD20 (human, UniProt P11836 1-297)
T1 construct: whole, on cells; 2H7 is called murine anti-human CD20; also called CD20 presented on WIL-2S cells; CD20 on Ramos, BJAB, SU-DHL-6 and DoHH2 B cells
T1 sequence (looked up): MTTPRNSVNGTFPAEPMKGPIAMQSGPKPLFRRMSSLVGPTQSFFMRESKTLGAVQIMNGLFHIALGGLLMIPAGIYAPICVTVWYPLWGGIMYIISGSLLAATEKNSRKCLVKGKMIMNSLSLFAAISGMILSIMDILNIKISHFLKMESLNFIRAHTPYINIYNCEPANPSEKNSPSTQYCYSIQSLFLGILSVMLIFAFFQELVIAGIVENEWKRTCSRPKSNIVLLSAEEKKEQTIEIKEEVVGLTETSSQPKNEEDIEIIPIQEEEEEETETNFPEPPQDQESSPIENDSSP


Biological target: T1, CD20
Assay: flow cytometry on WIL2-S cells (CD20), protein A purified protein at 0.72 ug/ml, FITC goat anti-human IgG
Description: “L1-L6” refers to the 2H7-sss-hIgG-Lx-2e12 molecules where […] represents the L1-L6 linkers and the 2e12 V regions in the orientation of VL-VH. All the molecules were tested at a concentration of 0.72 μg/ml, and the binding detected using FITC conjugated goat anti-human IgG at 1:100.

binding result | Binder
binds | 2H7-sss-hIgG P238S/P331S-H2-2e12 VHVL (bispecific antibody, Assembled from modules as m11; also called 2H7-sss-hIgG-H2-2e12 HL) QIVLSQSPAILSASPGEKVTMTCRASSSVSYMHWYQQKPGSSPKPWIYAPSNLASGVPARFSGSGSGTSYSLTISRVEAEDAATYYCQQWSFNPPTFGAGTKLELKDGGGSGGGGSGGGGSSQAYLQQSGAESVRPGASVKMSCKASGYTFTSYNMHWVKQTPRQGLEWIGAIYPGNGDTSYNQKFKGKATLTVDKSSSTAYMQLSSLTSEDSAVYFCARVVYYSNSYWYFDVWGTGTTVTVSEPKSSDKTHTSPPSPAPELLGGSSVFLFPPKPKDTLMISRTPEVTCVVVDVSHEDPEVKFNWYVDGVEVHNAKTKPREEQYNSTYRVVSVLTVLHQDWLNGKEYKCKVSNKALPASIEKTISKAKGQPREPQVYTLPPSRDELTKNQVSLTCLVKGFYPSDIAVEWESNGQPENNYKTTPPVLDSDGSFFLYSKLTVDKSRWQQGNVFSCSVMHEALHNHYTQKSLSLSPGKGGGGSGNSQVQLKESGPGLVAPSQSLSITCTVSGFSLTGYGVNWVRQPPGKGLEWLGMIWGDGSTDYNSALKSRLSITKDNSKSQVFLKMNSLQTDDTARYYCARDGYSNFHYYVMDYWGQGTSVTVSSGGGGSGGGGSGGGGSGGGGSDIVLTQSPASLAVSLGQRATISCRASESVEYYVTSLMQWYQQKPGQPPKLLISAASNVESGVPARFSGSGSGTDFSLNIHPVEEDDIAMYFCQQSRKVPWTFGGGTKLEIKR
binds | 2H7-sss-hIgG P238S/P331S-H4-2e12 VHVL (bispecific antibody, Assembled from modules as m11; also called 2H7-sss-hIgG-H4-2e12 HL) QIVLSQSPAILSASPGEKVTMTCRASSSVSYMHWYQQKPGSSPKPWIYAPSNLASGVPARFSGSGSGTSYSLTISRVEAEDAATYYCQQWSFNPPTFGAGTKLELKDGGGSGGGGSGGGGSSQAYLQQSGAESVRPGASVKMSCKASGYTFTSYNMHWVKQTPRQGLEWIGAIYPGNGDTSYNQKFKGKATLTVDKSSSTAYMQLSSLTSEDSAVYFCARVVYYSNSYWYFDVWGTGTTVTVSEPKSSDKTHTSPPSPAPELLGGSSVFLFPPKPKDTLMISRTPEVTCVVVDVSHEDPEVKFNWYVDGVEVHNAKTKPREEQYNSTYRVVSVLTVLHQDWLNGKEYKCKVSNKALPASIEKTISKAKGQPREPQVYTLPPSRDELTKNQVSLTCLVKGFYPSDIAVEWESNGQPENNYKTTPPVLDSDGSFFLYSKLTVDKSRWQQGNVFSCSVMHEALHNHYTQKSLSLSPGKGGGGSGGGGSGNSQVQLKESGPGLVAPSQSLSITCTVSGFSLTGYGVNWVRQPPGKGLEWLGMIWGDGSTDYNSALKSRLSITKDNSKSQVFLKMNSLQTDDTARYYCARDGYSNFHYYVMDYWGQGTSVTVSSGGGGSGGGGSGGGGSGGGGSDIVLTQSPASLAVSLGQRATISCRASESVEYYVTSLMQWYQQKPGQPPKLLISAASNVESGVPARFSGSGSGTDFSLNIHPVEEDDIAMYFCQQSRKVPWTFGGGTKLEIKR
binds | 2H7-sss-hIgG P238S/P331S-H5-2e12 VHVL (bispecific antibody, Assembled from modules as m11; also called 2H7-sss-hIgG-H5-2e12 HL) QIVLSQSPAILSASPGEKVTMTCRASSSVSYMHWYQQKPGSSPKPWIYAPSNLASGVPARFSGSGSGTSYSLTISRVEAEDAATYYCQQWSFNPPTFGAGTKLELKDGGGSGGGGSGGGGSSQAYLQQSGAESVRPGASVKMSCKASGYTFTSYNMHWVKQTPRQGLEWIGAIYPGNGDTSYNQKFKGKATLTVDKSSSTAYMQLSSLTSEDSAVYFCARVVYYSNSYWYFDVWGTGTTVTVSEPKSSDKTHTSPPSPAPELLGGSSVFLFPPKPKDTLMISRTPEVTCVVVDVSHEDPEVKFNWYVDGVEVHNAKTKPREEQYNSTYRVVSVLTVLHQDWLNGKEYKCKVSNKALPASIEKTISKAKGQPREPQVYTLPPSRDELTKNQVSLTCLVKGFYPSDIAVEWESNGQPENNYKTTPPVLDSDGSFFLYSKLTVDKSRWQQGNVFSCSVMHEALHNHYTQKSLSLSPGKNYGGGGSGGGGSGNSQVQLKESGPGLVAPSQSLSITCTVSGFSLTGYGVNWVRQPPGKGLEWLGMIWGDGSTDYNSALKSRLSITKDNSKSQVFLKMNSLQTDDTARYYCARDGYSNFHYYVMDYWGQGTSVTVSSGGGGSGGGGSGGGGSGGGGSDIVLTQSPASLAVSLGQRATISCRASESVEYYVTSLMQWYQQKPGQPPKLLISAASNVESGVPARFSGSGSGTDFSLNIHPVEEDDIAMYFCQQSRKVPWTFGGGTKLEIKR
